B1: MORAb-003 anti-FRA antibody reference standard (antibody, human IgG1, kappa, V domains shown)
VH: EVQLVESGGGVVQPGRSLRLSCSASGFTFSGYGLSWVRQAPGKGLEWVAMISSGGSYTYYADSVKGRFAISRDNAKNTLFLQMDSLRPEDTGVYFCARHGDDPAWFAYWGQGTPVTVSS
VL: DIQLTQSPSSLSASVGDRVTITCSVSSSISSNNLHWYQQKPGKAPKPWIYGTSNLASGVPSRFSGSGSGTDYTFTISSLQPEDIATYYCQQWSSYPYMYTFGQGTKVEIKR
modifications: N-linked neutral glycans at Asn299 in SEQ ID NO: 5
B2: MORAb-003 anti-FRA antibody, lot NB859-28 (low DO; harvested 14 days after initiation of culture) (antibody, human IgG1, kappa, V domains shown)
VH: B1 VH
VL: B1 VL
modifications: N-linked neutral glycans at Asn299 in SEQ ID NO: 5
notes: also called low DO (round 3)
B3: MORAb-003 anti-FRA antibody, lot NB809-65 (positive control; harvested 13 days after initiation of culture) (antibody, human IgG1, kappa, V domains shown)
VH: B1 VH
VL: B1 VL
modifications: N-linked neutral glycans at Asn299 in SEQ ID NO: 5
notes: also called Pos. ctl; positive control (round 2)
B4: MORAb-003 anti-FRA antibody, lot NB859-25 (harvested 14 days after initiation of culture) (antibody, human IgG1, kappa, V domains shown)
VH: B1 VH
VL: B1 VL
modifications: N-linked neutral glycans at Asn299 in SEQ ID NO: 5
notes: also called Day 14 harvest; positive control (round 3)
B5: MORAb-003 anti-FRA antibody, lot NB810-10 (positive control; harvested 14 days after initiation of culture) (antibody, human IgG1, kappa, V domains shown)
VH: B1 VH
VL: B1 VL
modifications: N-linked neutral glycans at Asn299 in SEQ ID NO: 5
notes: also called Pos. ctl; positive control (round 1)
B6: MORAb-003 anti-FRA antibody, lot NB809-69 (10 mM Na butyrate; harvested 13 days after initiation of culture) (antibody, human IgG1, kappa, V domains shown)
VH: B1 VH
VL: B1 VL
modifications: N-linked neutral glycans at Asn299 in SEQ ID NO: 5
B7: MORAb-003 anti-FRA antibody, lot NB859-24 (harvested 10 days after initiation of culture) (antibody, human IgG1, kappa, V domains shown)
VH: B1 VH
VL: B1 VL
modifications: N-linked neutral glycans at Asn299 in SEQ ID NO: 5
notes: also called Day 10 harvest
B8: MORAb-003 anti-FRA antibody, lot NB859-26 (harvested 17 days after initiation of culture) (antibody, human IgG1, kappa, V domains shown)
VH: B1 VH
VL: B1 VL
modifications: N-linked neutral glycans at Asn299 in SEQ ID NO: 5
notes: also called Day 17 harvest
B9: MORAb-003 anti-FRA antibody, lot NB810-11 (galactose supplement; harvested 14 days after initiation of culture) (antibody, human IgG1, kappa, V domains shown)
VH: B1 VH
VL: B1 VL
modifications: N-linked neutral glycans at Asn299 in SEQ ID NO: 5
B10: MORAb-003 anti-FRA antibody, lot NB809-68 (high CO2; harvested 13 days after initiation of culture) (antibody, human IgG1, kappa, V domains shown)
VH: B1 VH
VL: B1 VL
modifications: N-linked neutral glycans at Asn299 in SEQ ID NO: 5
B11: MORAb-003 anti-FRA antibody, lot NB809-70 (CuCl supplement; harvested 13 days after initiation of culture) (antibody, human IgG1, kappa, V domains shown)
VH: B1 VH
VL: B1 VL
modifications: N-linked neutral glycans at Asn299 in SEQ ID NO: 5
B12: MORAb-003 anti-FRA antibody, lot NB810-12 (low temperature; harvested 14 days after initiation of culture) (antibody, human IgG1, kappa, V domains shown)
VH: B1 VH
VL: B1 VL
modifications: N-linked neutral glycans at Asn299 in SEQ ID NO: 5
B13: MORAb-003 anti-FRA antibody, lot NB809-66 (0.5 mM Na butyrate; harvested 13 days after initiation of culture) (antibody, human IgG1, kappa, V domains shown)
VH: B1 VH
VL: B1 VL
modifications: N-linked neutral glycans at Asn299 in SEQ ID NO: 5
B14: MORAb-003 anti-FRA antibody, lot NB859-27 (harvested 20 days after initiation of culture) (antibody, human IgG1, kappa, V domains shown)
VH: B1 VH
VL: B1 VL
modifications: N-linked neutral glycans at Asn299 in SEQ ID NO: 5
notes: also called Day 20 harvest
B15: MORAb-003 anti-FRA antibody, lot NB809-67 (low DO; harvested 13 days after initiation of culture) (antibody, human IgG1, kappa, V domains shown)
VH: B1 VH
VL: B1 VL
modifications: N-linked neutral glycans at Asn299 in SEQ ID NO: 5
B16: MORAb-003 anti-FRA antibody, lot NB810-13 (high osmolarity; harvested 14 days after initiation of culture) (antibody, human IgG1, kappa, V domains shown)
VH: B1 VH
VL: B1 VL
modifications: N-linked neutral glycans at Asn299 in SEQ ID NO: 5

Columns and labels:
[1] = biological target: T1, Human FRA on IGROV-1 human ovarian adenocarcinoma cells (human, UniProt P15328 25-234); assay: cell-based or functional assay
T1 sequence (P15328 25-234 limits assumed): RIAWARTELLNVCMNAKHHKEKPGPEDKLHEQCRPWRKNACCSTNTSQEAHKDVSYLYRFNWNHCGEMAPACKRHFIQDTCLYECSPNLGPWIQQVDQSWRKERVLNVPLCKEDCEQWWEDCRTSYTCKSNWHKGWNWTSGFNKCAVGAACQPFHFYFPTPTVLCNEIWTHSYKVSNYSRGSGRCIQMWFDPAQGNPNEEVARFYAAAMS

[2] = biological target: T1, Human FRA on IGROV-1 human ovarian …; assay: cell-based or functional assay; remark: listed apart in the source
[3] = biological target: T2, Recombinant human folate receptor alpha (FRA) (human, UniProt P15328 25-234); assay: SPR, FRA on CM5 chip, parallel line analysis; reference standard = 100%
T2 construct: Immobilised on a CM5 chip by amine coupling; also called FR-alpha
T2 sequence (P15328 25-234 limits assumed): as above
Experimental: The surface was regenerated between cycles by flushing with 10 mM glycine pH 2.0.

[4] = biological target: T1, Human FRA on IGROV-1 human ovarian …; assay: cell-based or functional assay; remark: listed apart in the source

| Binder | Internalization IC50 [1] | IC50 (Hum-ZAP secondary immunotoxin killing of IGROV-1 cells) [2] | Measured Potency (%) [3] | Half-Maximal Internalization Constant [1] | INTL % (0 Min) [4] | INTL % (30 min) [4] | INTL % (60 min) [4] | INTL % (150 min) [4] | INTL % (15 min) [4] |
| --- | --- | --- | --- | --- | --- | --- | --- | --- | --- |
| B1 | 0.014 µg/mL | 14 ng·mL | – | – | – | – | – | – | – |
| B2 | – | – | 44.5% | 36.5 min | 0% | 19% | 44% | 53% | – |
| B3 | 0.014 µg/mL | 14 ng·mL | 49.7% | 51.7 min | 0% | 13% | 33% | 52% | 3% |
| B4 | 0.032 µg/mL | 32 ng·mL | 51.9% | 42 min | 0% | 20% | 44% | 61% | 1% |
| B5 | 1.63 µg/mL | 1630 ng·mL | 85.5% | 58.4 min | 0% | 9% | 32% | 56% | 4% |
| B6 | 0.024 µg/mL | 24 ng·mL | 49.3% | 51.2 min | 0% | 14% | 36% | 56% | 4% |
| B7 | 0.015 µg/mL | 15 ng·mL | 33.8% | 44.6 min | 0% | 18% | 40% | 58% | 1% |
| B8 | 0.036 µg/mL | 36 ng·mL | 27.5% | 36.6 min | 0% | 23% | 43% | 56% | – |
| B9 | 0.019 µg/mL | 19 ng·mL | 84.7% | 56.6 min | 0% | 6% | 29% | 50% | 3% |
| B10 | 0.028 µg/mL | 28 ng·mL | 50.5% | 46.5 min | 0% | 14% | 36% | 52% | 4% |
| B11 | 0.027 µg/mL | 27 ng·mL | 48% | 53.3 min | 0% | 16% | 37% | 58% | 6% |
| B12 | 0.025 µg/mL | 25 ng·mL | 87.3% | 41.2 min | 0% | 21% | 39% | 55% | 3% |
| B13 | 0.015 µg/mL | 15 ng·mL | 61.5% | 53.5 min | 0% | 8% | 31% | 50% | 3% |
| B14 | 0.023 µg/mL | 23 ng·mL | 53.3% | 37.3 min | 0% | 19% | 40% | 51% | 1% |
| B15 | 0.029 µg/mL | 29 ng·mL | 56.2% | 50.7 min | 0% | 14% | 34% | 53% | 3% |
| B16 | 0.99 µg/mL | 990 ng·mL | 72.6% | 49.6 min | 0% | 17% | 40% | 62% | – |
